Experimental data as given in PMC5653653.

Assays:
[1] = target: long Homer proteins (Homer1b/c, Homer2, and Homer3, collectively referred to as Homer) (mouse (endogenous in hippocampal neurons))
[2] = target: long Homer proteins (Homer1b/c, Homer2, and Homer3, collectively referred to as Homer) (mouse (endogenous in hippocampal neurons)); remark: listed apart in the source
[3] = target: long Homer proteins (Homer1b/c, Homer2, and Homer3, collectively referred to as Homer) (mouse (endogenous in hippocampal neurons)); remark: listed apart in the source

In the case of “Metabotropic glutamate receptor subtype 5 (mGluR5) (from UniProt Q3UVX5 19-1203)”, the change of the mobile fraction of synaptic mGluR5 in WT neurons, TAT-mGluR5ct against TAT-mGluR5mu [1] was 12.6%, the co-localized mGluR5/GluN1/Homer1-positive signals as percentage of synaptic GluN1 signal, WT neurons treated with TAT-mGluR5ct (5 µM, 1 h); increased [2] was 71.8% and the co-localized mGluR5/GluN1/Homer1-positive signals as percentage of synaptic GluN1 signal, WT neurons treated with the control peptide TAT-mGluR5mu (5 µM, 1 h); no effect [2] was 61.2%. For the same substance, the EPSCs (NMDA) amplitude (% of baseline) after DHPG (mGluR-LTD) in WT slices treated with TAT-mGluR5ct; LTD abolished [3] was 101%, the EPSCs (NMDA) amplitude (% of baseline) after DHPG (mGluR-LTD) in WT slices treated with the control peptide TAT-mGluR5mu; LTD not abolished [3] was 56.6% and the EPSCs (NMDA) amplitude in CA1 pyramidal neurons of WT slices treated with TAT-mGluR5ct (5 µM, 4 h); lower than untreated WT [3] was 88.1 pA. For the same substance, the EPSCs (NMDA) amplitude in CA1 pyramidal neurons of WT slices treated with the control peptide TAT-mGluR5mu (5 µM, 4 h); not lower than untreated WT [3] was 126 pA and the NMDA/AMPA ratio in CA1 pyramidal neurons of WT slices treated with TAT-mGluR5ct; reduced [3] was 0.88.
